In patent US20200369765A1 (INNATE PHARMA, published 2020):

How the values were obtained:
Human Siglec-9 mutant M6 = target: T1, Human Siglec-9 mutant M6 (human, UniProt Q9Y336 18-463); assay: flow cytometry, HEK293T transfectants
T1 construct: Expressed on HEK293T cells; also called Mutant 6

[1] = target: T2, Human Siglec-9 mutant M11 (human, UniProt Q9Y336 18-463); assay: flow cytometry, HEK293T transfectants
T2 construct: Expressed on HEK293T cells; also called Mutant 11

Human Siglec-9 mutant M9 = target: T3, Human Siglec-9 mutant M9 (human, UniProt Q9Y336 18-463); assay: flow cytometry, HEK293T transfectants
T3 construct: Expressed on HEK293T cells; also called Mutant 9

[2] = target: T4, Human Siglec-9 mutant M10 (human, UniProt Q9Y336 18-463); assay: flow cytometry, HEK293T transfectants
T4 construct: Expressed on HEK293T cells; also called Mutant 10
T4 sequence (Q9Y336 other isoform, or with tags, fused parts or gaps mutant): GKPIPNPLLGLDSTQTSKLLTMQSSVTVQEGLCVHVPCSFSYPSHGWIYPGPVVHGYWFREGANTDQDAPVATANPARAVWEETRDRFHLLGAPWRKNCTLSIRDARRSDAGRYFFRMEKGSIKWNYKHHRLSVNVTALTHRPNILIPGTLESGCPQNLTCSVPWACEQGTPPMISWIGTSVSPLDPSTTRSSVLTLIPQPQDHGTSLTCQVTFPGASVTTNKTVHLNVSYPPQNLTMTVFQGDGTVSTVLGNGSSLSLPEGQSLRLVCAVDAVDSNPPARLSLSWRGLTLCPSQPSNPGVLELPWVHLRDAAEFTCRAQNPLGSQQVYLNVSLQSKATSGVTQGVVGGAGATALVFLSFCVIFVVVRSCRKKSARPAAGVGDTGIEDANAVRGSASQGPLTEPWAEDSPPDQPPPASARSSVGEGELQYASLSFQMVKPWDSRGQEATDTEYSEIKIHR

Human Siglec-9 [3] = target: T5, Human Siglec-9 (human, UniProt Q9Y336 18-463); assay: flow cytometry on fresh purified human NK cells, mean of 4 donors
T5 construct: On transfected CHO cells; also on YTS and KHYG-1 transfectants, primary NK cells and moDC; also called huSiglec-9; CD329
Description: Binding of antibodies on fresh purified human NK cells was tested by titration experiment by flow cytometry. Cells were incubated 1h in Staining Buffer (SB) with primary antibodies at 10 ug/ml and a series of dilution of 1:10. They were washed three times with SB, then incubated 30 min with a Goat F(ab′)² Anti-Human IgG (Fc) PE (Jackson ImmunoResearch). Stainings were acquired on a BD FACS Canto II and analyzed using the FlowJo software. EC₅₀ values are shown in the table below in μg/ml (calculated using a 4-parameter logistic fit).
Target sequence in this assay (Q9Y336 18-463): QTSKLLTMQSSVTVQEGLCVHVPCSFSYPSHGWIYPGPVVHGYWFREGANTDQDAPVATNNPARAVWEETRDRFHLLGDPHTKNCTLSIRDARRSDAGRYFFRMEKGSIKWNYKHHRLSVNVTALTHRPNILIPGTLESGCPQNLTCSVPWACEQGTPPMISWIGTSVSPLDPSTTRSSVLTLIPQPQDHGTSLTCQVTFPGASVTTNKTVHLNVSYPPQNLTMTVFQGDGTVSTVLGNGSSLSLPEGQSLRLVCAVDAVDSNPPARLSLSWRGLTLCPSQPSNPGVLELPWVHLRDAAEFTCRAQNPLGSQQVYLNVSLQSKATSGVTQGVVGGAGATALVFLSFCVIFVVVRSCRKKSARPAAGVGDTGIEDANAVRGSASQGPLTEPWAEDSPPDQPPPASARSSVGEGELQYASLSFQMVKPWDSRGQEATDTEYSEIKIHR

Human Siglec-7 [4] = target: T6, Human Siglec-7 (human, UniProt Q9Y286 19-467); assay: flow cytometry, CHO transfectants
T6 construct: Expressed on transfected CHO cells; also called huSiglec-7; CD328
T6 sequence (Q9Y286 19-467): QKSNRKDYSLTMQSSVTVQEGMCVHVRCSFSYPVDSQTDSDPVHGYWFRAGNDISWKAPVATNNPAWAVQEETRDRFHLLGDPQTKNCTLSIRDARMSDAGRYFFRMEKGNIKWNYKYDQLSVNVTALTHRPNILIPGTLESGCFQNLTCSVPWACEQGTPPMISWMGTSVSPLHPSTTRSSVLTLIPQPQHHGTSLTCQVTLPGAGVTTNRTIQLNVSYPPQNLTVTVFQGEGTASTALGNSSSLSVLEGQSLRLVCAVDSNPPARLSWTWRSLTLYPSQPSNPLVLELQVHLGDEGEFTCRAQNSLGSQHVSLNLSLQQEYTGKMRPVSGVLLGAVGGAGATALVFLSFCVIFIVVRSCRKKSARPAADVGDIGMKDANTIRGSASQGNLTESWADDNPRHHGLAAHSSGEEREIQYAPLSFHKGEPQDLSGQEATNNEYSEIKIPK

Human Siglec-9 [5] = target: T5, Human Siglec-9; assay: flow cytometry titration on moDC vs neuraminidase-treated moDC
Description: (§1) moDC were desialylated for 2 hours with 25 mU neuraminidase (Roche Diagnostics).
(§2) Binding on moDCs and neuraminidase treated moDCs was tested in a titration experiment by flow cytometry. Cells were incubated 1h in Staining Buffer (SB) with primary antibodies at 10 ug/ml and a series of dilution of 1:10. They were washed two times with SB, then incubated 30 min with a Goat F(ab′)² Anti-Human IgG (Fc) PE (Jackson ImmunoResearch), and washed twice with SB.

[6] = target: T7, Human Siglec-9 N-terminal V-set Ig-like domain (human); assay: flow cytometry, HEK293T cells expressing single Siglec-9 domains
T7 construct: expressed on HEK293T cells

Human Siglec-9 [7] = target: T5, Human Siglec-9; assay: flow cytometry titration on neuraminidase-treated moDCs, goat F(ab')2 anti-human IgG (Fc) PE; table under the right panel
Description: as §1, §2

Human Siglec-9 [8] = target: T5, Human Siglec-9; assay: flow cytometry titration on untreated monocyte-derived dendritic cells (moDCs), goat F(ab')2 anti-human IgG (Fc) PE; table under the left panel
Description: as §2

Human Siglec-9 mutant M8 = target: T8, Human Siglec-9 mutant M8 (human, UniProt Q9Y336 18-463); assay: flow cytometry, HEK293T transfectants
T8 construct: Expressed on HEK293T cells; also called Mutant 8
T8 sequence (Q9Y336 other isoform, or with tags, fused parts or gaps mutant): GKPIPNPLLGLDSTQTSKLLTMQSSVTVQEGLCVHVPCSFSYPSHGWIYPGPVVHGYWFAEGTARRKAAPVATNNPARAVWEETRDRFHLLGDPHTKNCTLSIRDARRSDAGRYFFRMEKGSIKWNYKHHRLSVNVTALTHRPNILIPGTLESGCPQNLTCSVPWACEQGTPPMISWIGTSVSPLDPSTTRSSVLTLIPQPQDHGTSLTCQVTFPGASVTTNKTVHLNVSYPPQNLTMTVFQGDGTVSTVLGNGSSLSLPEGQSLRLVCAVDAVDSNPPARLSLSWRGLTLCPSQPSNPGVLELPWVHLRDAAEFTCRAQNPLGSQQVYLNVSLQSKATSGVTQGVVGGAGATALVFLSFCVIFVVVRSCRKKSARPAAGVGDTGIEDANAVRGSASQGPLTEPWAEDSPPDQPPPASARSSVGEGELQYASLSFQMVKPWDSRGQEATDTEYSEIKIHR

Siglec-7 Fc protein = target: T9, Siglec-7 Fc protein (human); assay: ELISA, blocking: Siglec-7 Fc captured on protein A, mAb dilution series, then biotinylated polymer Sia2, streptavidin-peroxidase (top panel); partial inhibition
T9 construct: Produced in CHO cells; also called human Siglec-7 Fc
T9 sequence (chain, as listed by the source limits assumed): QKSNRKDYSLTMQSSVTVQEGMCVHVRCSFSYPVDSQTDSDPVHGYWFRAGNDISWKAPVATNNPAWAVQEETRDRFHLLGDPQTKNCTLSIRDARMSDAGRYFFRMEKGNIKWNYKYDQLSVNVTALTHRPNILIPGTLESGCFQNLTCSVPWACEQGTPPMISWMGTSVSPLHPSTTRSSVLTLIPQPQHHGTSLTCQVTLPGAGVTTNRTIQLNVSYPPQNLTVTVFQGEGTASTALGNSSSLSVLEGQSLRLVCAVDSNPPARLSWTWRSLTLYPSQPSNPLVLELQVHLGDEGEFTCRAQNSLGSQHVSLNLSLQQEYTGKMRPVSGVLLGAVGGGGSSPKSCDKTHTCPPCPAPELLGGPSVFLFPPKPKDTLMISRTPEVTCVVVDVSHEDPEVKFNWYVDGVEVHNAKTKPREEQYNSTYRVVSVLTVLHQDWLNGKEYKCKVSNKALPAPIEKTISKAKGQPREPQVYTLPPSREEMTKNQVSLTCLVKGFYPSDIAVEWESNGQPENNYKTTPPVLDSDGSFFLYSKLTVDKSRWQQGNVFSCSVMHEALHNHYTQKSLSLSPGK
Description: (§3) Blocking of the interaction between Siglec-7 and -9 and sialylated ligands by anti Siglec-7/9 antibodies was tested on ELISA assays. Siglec proteins were Siglec-7 human Fc and Siglec-9 Human Fc recombinant proteins, and ligands were biotinylated polymers with sialylated trisaccharides (Neu5Aca2-3Galb1-4GcNAcb-PAA-biotin Glycotech #01-077 referred to as “Sia1” and 6′-Sialyllactose-PAA-biotin Glycotech #01-039 (referred to as “Sia2”). Briefly, Protein A was coated on ELISA plates over night at 4° C. After 3 washes and saturation, Siglec-7 Fc and Siglec-9 Fc were added at 0.8 μg/well at RT for 1H30. After 3 washes, mAbs were added at 20 ug/ml and a series of dilution of 1:5. After 3 washes, biotinylated sialylated polymers were added for 3 hours at room temperature. After 3 washes, Streptavidin-Peroxidase (Beckman) was added at 1:1000. […] The absorbance was read at 450 nm.

Human Siglec-9 [9] = target: T5, Human Siglec-9; assay: flow cytometry, CHO transfectants
Description: (§4) Binding of antibodies on human Siglec-7, human Siglec-9 and Cynomolgus Siglec-9 was tested by titration experiment by flow cytometry on CHO cells transfected with human Siglec-7 and human Siglec-9 and Cynomolgus Siglec-9. Cells were incubated 1h in Staining Buffer (SB) with primary antibodies at 20 ug/ml and a series of dilution of 1:5. They were washed three times with SB, then incubated 30 min with a goat F(ab′)² Anti-human IgG (Fc) PE (Beckman Coulter #1M05510), and washed twice with SB.
Target sequence in this assay (Q9Y336 18-463): as the sequence (Q9Y336 18-463) above

Cynomolgus Siglec = target: T10, Cynomolgus Siglec (cynomolgus); assay: flow cytometry, CHO transfectants
T10 construct: Expressed on transfected CHO cells; also called Siglec-Cyno; cynoSiglec
T10 sequence (chain, as listed by the source limits assumed): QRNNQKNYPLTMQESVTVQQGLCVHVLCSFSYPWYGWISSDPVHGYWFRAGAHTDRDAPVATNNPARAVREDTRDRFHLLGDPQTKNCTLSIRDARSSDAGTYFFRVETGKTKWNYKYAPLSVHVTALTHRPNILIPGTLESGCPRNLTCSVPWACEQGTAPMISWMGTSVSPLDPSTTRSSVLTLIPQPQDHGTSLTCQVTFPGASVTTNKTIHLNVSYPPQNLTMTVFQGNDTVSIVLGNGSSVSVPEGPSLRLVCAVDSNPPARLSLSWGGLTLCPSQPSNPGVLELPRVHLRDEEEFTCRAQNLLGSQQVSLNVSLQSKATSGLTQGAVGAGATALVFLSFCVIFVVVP
Description: as §4

Human Siglec-7 [10] = target: T6, Human Siglec-7; assay: flow cytometry, CHO transfectants; remark: listed apart in the source
Description: as §4

Siglec-9 Fc protein = target: T11, Siglec-9 Fc protein (human); assay: ELISA, blocking: Siglec-9 Fc captured on protein A, mAb dilution series, then biotinylated polymer Sia1 (Neu5Aca2-3Galb1-4GlcNAcb-PAA-biotin), streptavidin-peroxidase (top panel)
T11 construct: Produced in CHO cells; also called human Siglec-9 Fc
T11 sequence (chain, as listed by the source limits assumed): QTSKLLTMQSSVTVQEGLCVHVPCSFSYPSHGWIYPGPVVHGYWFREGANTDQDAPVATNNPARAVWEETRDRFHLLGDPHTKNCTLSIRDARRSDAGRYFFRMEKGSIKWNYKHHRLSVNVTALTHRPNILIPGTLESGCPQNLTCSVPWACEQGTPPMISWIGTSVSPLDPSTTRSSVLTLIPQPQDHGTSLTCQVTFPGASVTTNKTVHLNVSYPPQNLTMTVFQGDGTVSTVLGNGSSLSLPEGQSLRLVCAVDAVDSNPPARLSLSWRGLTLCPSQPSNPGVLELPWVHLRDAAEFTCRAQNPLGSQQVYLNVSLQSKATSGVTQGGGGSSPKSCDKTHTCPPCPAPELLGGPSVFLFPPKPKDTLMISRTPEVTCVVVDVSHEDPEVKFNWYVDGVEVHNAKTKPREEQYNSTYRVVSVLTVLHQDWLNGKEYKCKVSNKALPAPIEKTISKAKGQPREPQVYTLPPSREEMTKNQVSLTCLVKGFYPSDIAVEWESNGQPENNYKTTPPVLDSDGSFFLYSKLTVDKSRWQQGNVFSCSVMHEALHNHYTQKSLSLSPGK
Description: as §3

T2 sequence (Q9Y336 other isoform, or with tags, fused parts or gaps mutant): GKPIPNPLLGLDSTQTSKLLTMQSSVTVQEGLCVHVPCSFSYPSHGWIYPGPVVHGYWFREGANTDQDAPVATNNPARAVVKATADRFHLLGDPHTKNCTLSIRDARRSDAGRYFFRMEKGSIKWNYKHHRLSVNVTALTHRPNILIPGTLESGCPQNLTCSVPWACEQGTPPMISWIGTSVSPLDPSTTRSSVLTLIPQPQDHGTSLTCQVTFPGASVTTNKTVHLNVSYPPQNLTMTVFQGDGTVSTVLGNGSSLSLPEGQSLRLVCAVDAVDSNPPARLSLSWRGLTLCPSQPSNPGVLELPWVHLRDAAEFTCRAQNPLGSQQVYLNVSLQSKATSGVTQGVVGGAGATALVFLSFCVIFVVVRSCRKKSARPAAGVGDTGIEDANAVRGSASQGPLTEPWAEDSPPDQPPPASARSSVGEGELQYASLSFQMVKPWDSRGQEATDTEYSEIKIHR
T1 sequence (Q9Y336 other isoform, or with tags, fused parts or gaps mutant): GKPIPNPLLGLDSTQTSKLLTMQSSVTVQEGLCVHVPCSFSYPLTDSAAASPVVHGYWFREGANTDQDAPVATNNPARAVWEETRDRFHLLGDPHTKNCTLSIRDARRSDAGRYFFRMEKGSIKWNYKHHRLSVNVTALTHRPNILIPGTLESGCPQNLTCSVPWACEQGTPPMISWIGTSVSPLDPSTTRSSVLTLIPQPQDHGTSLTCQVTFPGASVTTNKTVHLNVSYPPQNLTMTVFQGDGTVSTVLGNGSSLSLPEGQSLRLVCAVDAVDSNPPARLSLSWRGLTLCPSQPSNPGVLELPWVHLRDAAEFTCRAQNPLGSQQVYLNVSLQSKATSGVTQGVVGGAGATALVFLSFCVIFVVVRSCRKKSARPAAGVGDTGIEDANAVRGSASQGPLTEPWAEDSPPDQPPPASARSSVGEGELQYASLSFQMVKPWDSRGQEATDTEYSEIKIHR

Binder	binding result (Human Siglec-9 mutant M6)	binding result [1]	binding result (Human Siglec-9 mutant M9)	binding result [2]	EC50 (Human Siglec-9 [3])	binding result (Human Siglec-7 [4])	fold change of EC50 after neuraminidase treatment of moDC (Human Siglec-9 [5])	binding result [6]	EC50 (Human Siglec-9 [7])	EC50 (Human Siglec-9 [8])	binding result (Human Siglec-9 mutant M8)	IC50 (read off the curve) (Siglec-7 Fc protein)	EC50 (Human Siglec-9 [9])	EC50 (Cynomolgus Siglec)	EC50 (Human Siglec-7 [10])	binding result (Siglec-9 Fc protein)
mAbC (antibody, human IgG1, V domains shown) VH: QIQLVQSGPELKKPGETVKISCKASGYTFTNYEMNWVKEAPGKGLKWMGWINTYTGESTYADDFKGRFAFSLETSASTVYLQINNLKDEDVATYFCVRDDYGRSYGFAYWGQGTLVTVSA VL: NIVLTQSPASLTVSLGQRANISCRASESVDSYGNSFMHWYQQKPGQPPKLLIYLASKLESGVPARFSGSGSRTDFTLTIDPVETDDAATYYCHQNNEDPPWTFGGGTKLEIK	binds	binds	binds	binds	0.09 µg/mL	no binding	10 fold	binds	0.0274 µg/mL	0.196 µg/mL						
mAbF (antibody, human IgG1, V domains shown) VH: QVQLQQSGPEVVRPGVSVKISCKGSGYTFTDYSMHWVKQSHAKSLEWIGVISTYNGNTNYNQKFKGKATMTVDKSSSTAYMELARLTSEDSAIYYCARRGYYGSSSWFGYWGQGTLVTVSA VL: DIVMTQSQKFMSTSVGDRVSVTCKASQNVGTDVAWYQQKPGQSPEALIYSASYRYSGVPDRFTGSGSGADFTLTISNVQSEDLAEYFCQQYNSFPYTFGGGTKLEIK	binds				0.3 µg/mL	no binding		binds								
mAb1 (antibody, human IgG1, V domains shown) VH: DVQLQESGPGLVKPSQSLSLTCTVTGYSITGGFAWNWIRQFPGNTLEWMGYIGYGGSTSYNPSLNSRISITRDTSKNHFFLQFNSVTTDDSATYYCARGDYLFAYWGQGTLVTVSA VL: DIVMTQSHKFMSTSVGDRVSITCKASQDVNTAVAWYQQKPGQSPKLLIYSASYRYTGVPDRFTGSGSGTDFTFTISSVQAEDLAVYYCQQHYSTPRTFGGGTKLEIK	binds							binds			binds	~3 µg/mL	0.11 µg/mL	0.67 µg/mL	0.21 µg/mL	
mAb3 (antibody, human IgG1, V domains shown) VH: EVQLLETGPGLVKPSQSLSLTCTVTGYSITGGFAWNWIRQFPGNTLEWMGYIGYGGSTSYNPSLNSRISITRDTSKNHFFLQFNSVTTEDSATYYCARGDYLFAYWGQGTLVTVSA VL: DILMTQSPASLSASVGETVSITCRASGNIHNYLAWYLQRQGKSPQLLVYNAKTLADGVPSRFSGTGSGTQFSLKINSLQPEDFGSYYCQHFWSTPRTFGGGTKLEIK	binds							binds			binds		0.23 µg/mL	0.85 µg/mL	0.22 µg/mL	binds
mAb2 (antibody, human IgG1, V domains shown) VH: EVQLQESGPGLVKPSQSLSLTCTVTGYSITGGFAWNWIRQFPGNTLEWMGYIGYGGSTSYNPSLNSRISITRDTSKNHFFLQFNSVTTEDSATYYCARGDYLFAYWGQGTLVTVSA VL: DIVMTQSHKFMSTSVGDRVSITCKASQDVNTAVAWYQQKPGQSPKLLIYSASYRYTGVPDRFTGSGSGTDFTFTISSVQAEDLAVYYCQQHYSTPRTFGGGTKLEIK	binds							binds			binds		0.08 µg/mL	0.53 µg/mL	0.17 µg/mL	
mAbE (antibody, human IgG1, V domains shown) VH: DVQLVESGGGLVQPGGSRKLSCAASGFTFSTFGMHWVRQAPEKGLEWVAYISSGSNAIYYADTVKGRFTISRDNPKNTLFLQMTSLRSEDTAMYYCASPGYGAWFAYWGQGTLVTVSA VL: ENVLTQSPAIMSASPGEKVTMTCRASSSVSSAYLHWYQQKSGASPKLWIYSTSNLASGVPARFSGSGSGTSYSLTISSVEAEDAATYYCQQYSAYPYTFGGGTKLEIK	binds				0.01 µg/mL	no binding		binds								
mAbD (antibody, human IgG1, V domains shown) VH: QIQLVQSGPELKKPGETVKISCKASGYTFTDYSMHWVKQAPGKGLKWMGWIITETGEPTYADDFRGRFAFSLETSANTAYLQINNLKNEDTATYFCARDFDGYWGQGTTLTVSS VL: DILMTQSPASLSASVGETVTITCRASENIYSYLAWYQQKRGKSPQFLVYNAKTLTEGVPSRFRGSGSGTQFSLKINSLQPEDFGTYYCQHHYGFPWTFGGGTKLEIK		binds	binds	binds		no binding	10 fold	binds	0.0925 µg/mL	2.47 µg/mL	binds					
mAbA (antibody, human IgG1, V domains shown) VH: QVQLQQPGAELVKPGSPVKLSCKASYFTFTSYWMHWVRQRPGQGLEWIGEINPSNGHTNYNEKFESKATLTVDRSSSTAYMQLSSLTSEDSAVFYCANGVESYDFDDALDYWGQGTSVTVSS VL: DIQMTQTTSSLSASLGDRVTISCRASQDINNYLNWYQQKPDGTIKLLIYYTSRLHSGVPSRFSGSGSGTDYSLTINNLEQEDIATYFCQQGNTLPFTFGGGTKLEIK	binds	binds	binds	binds	0.08 µg/mL	no binding	10 fold	binds	0.0282 µg/mL	0.232 µg/mL	binds					
mAbB (antibody, human IgG1, V domains shown) VH: QVQLQQPGAELVKPGASVKLSCKASVYTFTSYWMHWVKQRPGQGLEWIGEINPSNGHTNYNEKFKTKAKLTVDKSSSTAYMQLSSLTSEDSAVYFCANGVETYDFDDAMDYWGQGTSVTVSS VL: DIQMTQTTSSLSASLGDRVTISCRASQDINNYLNWYQQKPDGTVKLLIYFTSRLHSGVPSRFSGSGSGTDYSLTISNLEQEDIATYFCQQGDTFPFTFGGGTKLEIK	binds	binds	binds	binds	0.1 µg/mL	no binding		binds			binds					
